Data published in patent US20200131227A1, “POLYPEPTIDE WITH TUMOUR BINDING ACTIVITY” (RUPRECHT-KARLS-UNIVERSITÄT HEIDELBERG, priority 2017, published 2020).
pIC50: −log10 of the molar value. Where a SMILES comes first, the peptide text is derived from it. Bridges are numbered along the chain shown (N, C = ends).

Assays:
HNO97 cells = format: binding, human; settings: 48 h
Method: For binding studies, 2.5×10^5 to 4×10^5 cells were seeded in 6-well plates and cultivated for 48 hours. Cells were incubated for 60 min with 1 mL serum-free medium containing the ^125I-labeled peptide (see above). For competition experiments, cells were simultaneously exposed to unlabeled (10^-4 M to 10^-10 M) and ^125I-labeled peptides. After three washing steps with PBS (pH 7.4) the cells were lysed with 0.5 mL of 0.3 M NaOH. Experiments concerning the internalization, kinetics and efflux were additionally performed with ^177Lu-DOTA-SFITGv6. To evaluate kinetics and efflux HNO97 cells were incubated for different time intervals (10 min to 480 min) and 60 min, respectively, with ^177Lu-DOTA-SFITGv6 and lysed as described. To continue with the efflux experiment radioactive medium was replaced by non-radioactive medium and cells were incubated again for 60 to 240 min before measuring radioactivity of the cell lysates and the medium. For internalization experiments the cells were exposed to ^177Lu-DOTA-SFITGv6 for different time intervals (10 to 240 min) at 37° C. and 4° C. After three washing steps with PBS the cells were incubated with 1 mL of glycine-HCl 50 mmol/L in PBS (pH 2.8) for 10 min at RT to remove the surface bound activity. Then, cells were washed with 3 mL of ice-cold PBS and lysed as described. Radioactivity was determined in a gamma counter and calculated as percentage of the applied dose per 1×10^6 cells. Experiments were performed three times, and three repetitions per independent experiment were acquired.

[1] = Biodistribution, HNO97 xenografts; settings: Balb/c nude, mouse, iv, 1 MBq, total radioactivity; for tissue uptake: in vivo
carcinoma cell lines = assay: In vitro binding of radiolabeled peptides to several carcinoma cell lines; format: cell-based, human; settings: HNO97 and UM-UC-5 cells, ^125I-labeled, 60 min, versus SFPF-10
In short: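 Cells seeded 48 h were incubated with ^125I-labeled peptide in serum-free medium for 10 or 60 min, alone or with unlabeled peptide (10^−4 to 10^−11 M); HNO97 kinetics, efflux and internalization (37° C and 4° C, acid strip) used ^177Lu-DOTA-SFITGv6. Gamma counting gave % applied dose per 10^6 cells.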

[2] = Serum stability assay (radio-HPLC); format: in vitro ADME, human
Method: Five MBq of the purified ^131I-radiolabeled peptide was incubated in 300 μL human serum at 37° C. After different time intervals (15 min to 24 hours) 20 μL serum was precipitated with 40 μL acetonitrile. The stability of the labeled peptide in the supernatant was monitored by radio-HPLC at selected time points using a chromolith performance RP18ec column (3 mm×100 mm) equipped with a gamma detector (Packard COBRA™ Auto-Gamma, GMI). Separation condition was a gradient of 0% to 60% aqueous acetonitrile supplemented with 0.1% TFA over 10 min with a flow rate of 2 mL/min.

## CSCC[C@@H]1NC(=O)[C@H](CC(C)C)NC(=O)[C@H](CC(=O)O)NC(=O)CNC(=O)[C@H](CCCNC(=N)N)NC(=O)[C@H](Cc2ccccc2)NC(=O)[C@H]([C@@H](C)O)NC(=O)[C@@H](NC(=O)[C@H](CCCNC(=N)N)NC(=O)CN)CSSC[C@@H](C(=O)N[C@@H](Cc2ccc(O)cc2)C(=O)N2CCC[C@H]2C(=O)N[C@@H](CC(=O)O)C(=O)O)NC(=O)[C@H](CC(C)C)NC(=O)[C@H](CCC(N)=O)NC1=O [SFITGv6, NH2-G-R-C1-T-F-R-G-D-L-M-Q-L-C1-Y-P-D-COOH] (H-GRCTFRGDLMQLCYPD-OH; disulfide 3-13)
HNO97 cells
  pIC50: 7.79
[1]; activity in the blood
  tissue uptake: < 1 %ID/g
[1]; uptake in the kidneys, hardly any clearance
  tissue uptake: ~42 %ID/g
[1]
  tissue uptake at 0.5 h: > 6 %ID/g
  tissue uptake at 6 h: 2.4 %ID/g
Carcinoma cell lines
  binding after substitution of lysine (K) to leucine (L) in FRGDKMQL: substantially increased the binding
[2]
  proteolytic stability in human serum: outstanding stability in human serum over a period of 24 hours
